One experiment has as its target T1, wtAR (Homo sapiens, UniProt P10275).
T1 sequence (P10275 1-920): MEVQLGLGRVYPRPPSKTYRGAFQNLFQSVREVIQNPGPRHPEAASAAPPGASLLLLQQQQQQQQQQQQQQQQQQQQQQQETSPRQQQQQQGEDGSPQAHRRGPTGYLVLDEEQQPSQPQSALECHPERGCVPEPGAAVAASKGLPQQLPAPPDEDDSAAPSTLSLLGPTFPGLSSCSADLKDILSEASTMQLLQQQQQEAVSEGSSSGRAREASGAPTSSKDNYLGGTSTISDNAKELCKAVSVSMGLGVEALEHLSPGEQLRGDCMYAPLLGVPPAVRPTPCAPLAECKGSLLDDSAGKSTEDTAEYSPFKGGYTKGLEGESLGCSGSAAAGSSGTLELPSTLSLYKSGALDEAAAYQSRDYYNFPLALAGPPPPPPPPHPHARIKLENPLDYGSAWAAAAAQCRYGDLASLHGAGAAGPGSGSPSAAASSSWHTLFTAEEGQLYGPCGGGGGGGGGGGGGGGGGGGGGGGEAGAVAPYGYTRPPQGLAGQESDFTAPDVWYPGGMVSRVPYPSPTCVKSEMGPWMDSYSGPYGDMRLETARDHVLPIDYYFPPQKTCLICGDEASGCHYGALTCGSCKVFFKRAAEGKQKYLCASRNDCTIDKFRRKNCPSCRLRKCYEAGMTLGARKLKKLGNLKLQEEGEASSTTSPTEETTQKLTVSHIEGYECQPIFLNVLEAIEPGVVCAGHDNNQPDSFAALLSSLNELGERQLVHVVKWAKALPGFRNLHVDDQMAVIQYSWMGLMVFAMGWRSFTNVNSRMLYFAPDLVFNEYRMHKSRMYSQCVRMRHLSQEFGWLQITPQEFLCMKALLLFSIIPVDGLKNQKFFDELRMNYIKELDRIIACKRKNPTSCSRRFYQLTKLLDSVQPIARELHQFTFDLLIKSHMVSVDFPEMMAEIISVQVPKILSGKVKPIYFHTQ
The experiment can be described thus: AR transactivation, transient transfection with MMTV-CAT reporter in DU145 cells. The conditions noted are these: for AR transcriptional activity induction with cotransfected coactivator: wild type AR, 1 nM DHT, DU145, from 5-fold without coactivator.

For experiment [1], the system named is AR. Description: Mammalian two-hybrid assay with CAT reporter in DU145 cells. Type of experiment: cell-based, human. From the text: The mammalian two-hybrid system employed was essentially the protocol of Clontech (California), with the following modifications. […] The hinge and LBD of wtAR were then inserted into pGAL0. Similarly, the VP16 activation domain was fused to pCMX under the control of a CMV promoter, and designated pCMX-VP16 (provided by Dr. R. M. Evan).

For a further experiment, the system named is ARA55 mRNA. The experiment can be described thus: Northern blot of ARA55 mRNA in PC3 cells. To be noted: TGFβ 5 ng/ml. Type of experiment: cell-based, human. On the procedure:
The total RNA (25 μg) was fractionated on a 1% formaldehyde-MOPS agarose gel, transferred onto a Hybond-N nylon membrane (Amersham) and prehybridized. A probe corresponding to the 900 bp C-terminus of ARA55 or an ARA54-specific sequence was ^32P-labeled in vitro using Random Primed DNA Labeling Kit (Boehringer-Mannheim) according to the manufacture's protocol and hybridized overnight. After washing, the blot was exposed and quantified by Molecular Dynamics PhosphorImager. β-actin was used to monitor the amount of total RNA in each lane.

Experiment [2] addresses T2, AR (Homo sapiens, UniProt P10275).
T2 sequence (P10275 1-920): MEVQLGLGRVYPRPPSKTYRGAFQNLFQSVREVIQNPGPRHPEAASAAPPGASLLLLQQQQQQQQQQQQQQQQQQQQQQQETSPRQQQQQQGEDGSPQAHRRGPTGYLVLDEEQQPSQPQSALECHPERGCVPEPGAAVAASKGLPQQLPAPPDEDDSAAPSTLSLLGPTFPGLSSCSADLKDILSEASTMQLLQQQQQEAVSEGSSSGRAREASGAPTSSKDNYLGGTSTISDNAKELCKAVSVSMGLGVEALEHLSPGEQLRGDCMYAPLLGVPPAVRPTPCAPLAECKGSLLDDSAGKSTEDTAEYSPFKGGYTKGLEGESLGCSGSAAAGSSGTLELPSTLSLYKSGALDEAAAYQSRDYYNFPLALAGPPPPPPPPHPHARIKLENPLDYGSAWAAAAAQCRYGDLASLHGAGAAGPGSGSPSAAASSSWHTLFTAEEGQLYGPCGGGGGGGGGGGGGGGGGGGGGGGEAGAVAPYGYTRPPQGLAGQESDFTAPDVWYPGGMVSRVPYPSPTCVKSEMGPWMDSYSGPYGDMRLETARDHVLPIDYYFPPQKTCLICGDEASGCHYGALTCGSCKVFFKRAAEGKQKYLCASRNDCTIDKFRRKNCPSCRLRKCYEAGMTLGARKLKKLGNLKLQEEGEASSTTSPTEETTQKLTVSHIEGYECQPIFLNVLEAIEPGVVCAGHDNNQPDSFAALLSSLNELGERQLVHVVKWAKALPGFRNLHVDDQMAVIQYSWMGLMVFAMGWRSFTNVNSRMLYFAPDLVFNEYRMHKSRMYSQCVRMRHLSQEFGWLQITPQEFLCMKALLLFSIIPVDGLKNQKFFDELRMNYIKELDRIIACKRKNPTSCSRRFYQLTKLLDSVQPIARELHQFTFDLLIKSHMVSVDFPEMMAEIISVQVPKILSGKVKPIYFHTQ
The experiment can be described thus: AR transcriptional activity (MMTV-CAT) in PC3 cells. To be noted: TGFβ treatment.

The subject of another experiment is mARt877s. Description: AR transactivation, transient transfection CAT reporter assay, mutant AR. In kind it is cell-based, human.
The target of experiment [3] is T3, progesterone receptor (PR) (Homo sapiens, UniProt P06401).
T3 construct: expressed in transfected cells; host or cells: DU145
T3 sequence (P06401 1-933): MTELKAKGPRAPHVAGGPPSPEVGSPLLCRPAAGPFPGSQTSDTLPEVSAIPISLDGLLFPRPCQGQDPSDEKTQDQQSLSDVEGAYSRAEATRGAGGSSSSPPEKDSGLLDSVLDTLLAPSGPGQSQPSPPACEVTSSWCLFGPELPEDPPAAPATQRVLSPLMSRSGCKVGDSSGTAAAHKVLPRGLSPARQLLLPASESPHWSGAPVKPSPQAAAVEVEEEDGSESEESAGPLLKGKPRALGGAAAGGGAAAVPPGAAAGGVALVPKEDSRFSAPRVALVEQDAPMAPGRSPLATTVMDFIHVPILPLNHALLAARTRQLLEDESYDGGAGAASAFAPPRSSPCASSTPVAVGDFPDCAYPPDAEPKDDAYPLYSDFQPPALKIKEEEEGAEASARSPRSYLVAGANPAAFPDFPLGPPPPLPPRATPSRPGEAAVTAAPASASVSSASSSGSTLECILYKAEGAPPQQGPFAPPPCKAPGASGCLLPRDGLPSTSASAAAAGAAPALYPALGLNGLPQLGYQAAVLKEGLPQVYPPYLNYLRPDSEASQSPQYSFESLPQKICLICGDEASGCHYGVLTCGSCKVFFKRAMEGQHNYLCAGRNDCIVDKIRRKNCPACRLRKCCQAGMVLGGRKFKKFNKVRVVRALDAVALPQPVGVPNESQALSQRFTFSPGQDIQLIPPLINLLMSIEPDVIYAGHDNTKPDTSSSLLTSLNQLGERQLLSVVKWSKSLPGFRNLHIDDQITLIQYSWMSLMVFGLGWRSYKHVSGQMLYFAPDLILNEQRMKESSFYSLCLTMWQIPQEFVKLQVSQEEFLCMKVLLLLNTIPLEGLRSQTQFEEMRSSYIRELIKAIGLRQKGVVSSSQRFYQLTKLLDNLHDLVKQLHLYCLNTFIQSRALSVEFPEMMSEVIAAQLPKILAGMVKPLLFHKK
The experiment can be described thus: Steroid receptor transactivation, MMTV-CAT reporter in DU145 cells. Type of experiment: cell-based. The conditions noted are these: DU145 cells, cognate ligand.

In experiment [4] the target is T4, glucocorticoid receptor (GR) (Homo sapiens, UniProt P04150).
T4 construct: expressed in transfected cells; host or cells: DU145
T4 sequence (P04150 1-777): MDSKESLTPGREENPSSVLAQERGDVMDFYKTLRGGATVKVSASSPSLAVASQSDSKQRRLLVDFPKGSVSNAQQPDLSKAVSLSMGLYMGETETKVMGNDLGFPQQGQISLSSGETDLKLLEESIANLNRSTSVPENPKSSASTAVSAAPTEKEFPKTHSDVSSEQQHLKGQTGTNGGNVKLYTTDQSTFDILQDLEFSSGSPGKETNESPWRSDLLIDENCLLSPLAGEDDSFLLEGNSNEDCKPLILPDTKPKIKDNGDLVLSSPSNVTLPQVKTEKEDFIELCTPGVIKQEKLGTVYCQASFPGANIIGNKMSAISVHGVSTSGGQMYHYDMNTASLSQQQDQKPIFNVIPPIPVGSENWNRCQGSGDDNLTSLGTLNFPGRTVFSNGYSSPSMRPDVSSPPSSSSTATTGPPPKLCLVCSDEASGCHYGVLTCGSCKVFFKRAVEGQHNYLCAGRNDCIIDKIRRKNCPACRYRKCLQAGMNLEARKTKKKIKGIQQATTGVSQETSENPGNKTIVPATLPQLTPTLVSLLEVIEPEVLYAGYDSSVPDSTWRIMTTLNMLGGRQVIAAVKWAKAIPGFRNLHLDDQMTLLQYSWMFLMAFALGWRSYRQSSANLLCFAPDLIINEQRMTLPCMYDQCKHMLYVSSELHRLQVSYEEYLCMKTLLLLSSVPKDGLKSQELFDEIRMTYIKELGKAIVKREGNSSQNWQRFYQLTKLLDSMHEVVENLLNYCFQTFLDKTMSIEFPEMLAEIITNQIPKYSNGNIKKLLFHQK
Described as above. Type of experiment: cell-based. To be noted: DU145 cells.

The next experiment addresses T5, estrogen receptor (ER) (Homo sapiens, UniProt P03372).
T5 construct: expressed in transfected cells; host or cells: DU145
T5 sequence (P03372 1-595): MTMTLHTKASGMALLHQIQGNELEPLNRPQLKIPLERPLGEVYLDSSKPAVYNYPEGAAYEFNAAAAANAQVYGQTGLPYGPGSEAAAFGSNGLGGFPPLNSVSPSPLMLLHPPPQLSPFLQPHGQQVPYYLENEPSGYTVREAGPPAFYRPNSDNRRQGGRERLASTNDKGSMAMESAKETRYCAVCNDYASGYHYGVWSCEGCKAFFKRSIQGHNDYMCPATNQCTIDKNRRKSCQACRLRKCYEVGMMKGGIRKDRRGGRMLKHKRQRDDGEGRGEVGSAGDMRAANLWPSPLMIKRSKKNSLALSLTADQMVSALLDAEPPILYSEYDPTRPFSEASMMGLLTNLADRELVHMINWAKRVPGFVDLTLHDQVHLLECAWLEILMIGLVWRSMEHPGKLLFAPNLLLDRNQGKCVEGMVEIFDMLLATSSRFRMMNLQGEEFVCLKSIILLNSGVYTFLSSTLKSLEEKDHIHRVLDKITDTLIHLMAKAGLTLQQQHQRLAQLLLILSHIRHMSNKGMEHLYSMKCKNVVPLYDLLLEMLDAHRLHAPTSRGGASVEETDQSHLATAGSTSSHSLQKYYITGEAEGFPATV
Description: Steroid receptor transactivation, ERE-CAT reporter in DU145 cells. In kind it is cell-based. To be noted: DU145 cells.

Five molecules from patent publication US7052908B2, “Androgen receptor coactivators” (University of Rochester, priority 1998, dated 2006) can be followed below.

Consider “ARA70: the first identified AR coactivator, used as positive control [reference compound]”, for which the “AR transcriptional activity induction with cotransfected coactivator” value in the experiment with wtAR was found to be 36 fold.

In the case of “Rb: retinoblastoma protein, SEQ ID NO:8, expressed by transfection as AR coactivator”, the “induced CAT activity in mammalian two-hybrid assay (interaction with AR)” value in the experiment with AR [1] (DU145, Rb with near full length AR (aa 36-918)) is on record as 3 fold. The “AR transcriptional activity induction with cotransfected coactivator” value with wtAR is 21 fold.

Regarding TGFβ, in the experiment with ARA55 mRNA, the “induction of ARA55 mRNA” value amounted to 2 fold. In addition, the “increase of AR transcriptional activity” value at AR [2] is on record as 70%.

On to `C[C@]12CC[C@@H]3c4ccc(O)cc4CC[C@H]3[C@@H]1CC[C@@H]2O` [E2, 17 β estradiol], for which the “response of Art877a transactivation to ligand” value with mARt877s (absence of ARA54, E2 10^-9-10^-7 M, HF 10^-7-10^-5 M) was “responded”. In the experiment on mARt877s (compared to wtAR), the “response of LNCaP mAR to ligand compared to wtAR” value is reported as “responded much better”.

B1: ARA54: 54 kDa androgen receptor coactivator, 474 aa, SEQ ID NO:2, expressed by transfection (protein)
chain: MSSEDREAQEDELLALASIYDGDEFRKAESVQGGETRIYLDLPQNFKIFVSGNSNECLQNSGFEYTICFLPPLVLNFELPPDYPSSSPPSFTLSGKWLSPTQLSALCKHLDNLWEEHRGSVVLFAWMQFLKEETLAYLNIVSPFELKIGSQKKVQRRTAQASPNTELDFGGAAGSDVDQEEIVDERAVQDVESLSNLIQEILDFDQAQQIKCFNSKLFLCSICFCEKLGSECMYFLECRHVYCKACLKDYFEIQIRDGQVQCLNCPEPKCPSVATPGQVKELVEAELFARYDRLLLQSSLDLMADVVYCPRPCCQLPVMQEPGCTMGICSSCNFAFCTLCRLTYHGVSPCKVTAEKLMDLRNEYLQADEANKRLLDQRYGKRVIQKALEEMESKEWLEKNSKSCPCCGTPIEKLDGCNKMTCTGCMQYFCWICMGSLSRANPYKHFNDPGSPCFNRLFYAVDVDDDIWEDEVED
modifications: Homo sapien
B1: in experiment [3], the “induction of PR transcriptional activity by ARA54” value is 3–5 fold. Also, the “effect of ARA54 on GR transcriptional activity” value in experiment [4] is “less than 2 fold”. The “effect of ARA54 on ER transcriptional activity” value with estrogen receptor (ER) was “less than 2 fold”. Besides, the “CAT activity on coexpression of AR with ARA54” value in the experiment on AR [1] (DU145, 10^-8 M DHT) is given as “significantly induced”. In the experiment with wtAR (DHT 10^-10 to 10^-8 M), the “enhancement of wtAR transactivation by coexpressed ARA54” value is 3–5 fold. In addition, in the experiment with wtAR (DU145 cells, cognate ligand), the “induction of AR transcriptional activity by ARA54” value is on record as “up to 6 fold”.
